Source: the supplement of paper PMC9112550, “Optimization of the antimicrobial peptide Bac7 by deep mutational scanning” (BMC Biology, 2022)

Tested on: Escherichia coli TOP10
Test: shrunken log2 fold change of peptide-encoding DNA abundance (4.5 h post-induction vs induction); higher = less antimicrobial activity (less host growth inhibition)
Conditions: time post-induction: 4.5 h; library: site-saturation at positions 5, 18, 19, 20
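Note: peptides expressed intracellularly from a pBAD plasmid library in pooled LB shake-flask culture, induced with 0.3% L-arabinose, DNA abundance read by NGS, three biological replicates, DESeq2 with apeglm shrinkage.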

Sequence	shrunken log2 fold change
RRIRRRPPRLPRPRPRPCSLPRP	0.00239
RRIRRRPPRLPRPRPRPCVTPRP	-0.0627
RRIRRRPPRLPRPRPRPCWAPRP	0.153
RRIRRRPPRLPRPRPRPCYDPRP	-0.194
RRIRRRPPRLPRPRPRPCYRPRP	0.0724
RRIRRRPPRLPRPRPRPDANPRP	0.555
RRIRRRPPRLPRPRPRPDCTPRP	0.252
RRIRRRPPRLPRPRPRPDDDPRP	0.129
RRIRRRPPRLPRPRPRPDFCPRP	-0.0293
RRIRRRPPRLPRPRPRPDGCPRP	0.165
RRIRRRPPRLPRPRPRPDHMPRP	-0.0178
RRIRRRPPRLPRPRPRPDIEPRP	0.172
RRIRRRPPRLPRPRPRPDILPRP	0.0906
RRIRRRPPRLPRPRPRPDIMPRP	-0.146
RRIRRRPPRLPRPRPRPDIPPRP	-0.22
RRIRRRPPRLPRPRPRPDLDPRP	0.67
RRIRRRPPRLPRPRPRPDMEPRP	-0.0393
RRIRRRPPRLPRPRPRPDMRPRP	0.415
RRIRRRPPRLPRPRPRPDMYPRP	-0.315
RRIRRRPPRLPRPRPRPDPHPRP	0.296
RRIRRRPPRLPRPRPRPDRMPRP	-0.00208
RRIRRRPPRLPRPRPRPDSRPRP	0.0229
RRIRRRPPRLPRPRPRPDTEPRP	0.0209
RRIRRRPPRLPRPRPRPDWGPRP	0.157
RRIRRRPPRLPRPRPRPDWKPRP	0.192

Sequence	shrunken log2 fold change
RRIRRRPPRLPRPRPRPDWWPRP	-0.0208
RRIRRRPPRLPRPRPRPDYPPRP	0.0596
RRIRRRPPRLPRPRPRPDYSPRP	-0.263
RRIRRRPPRLPRPRPRPEAPPRP	0.708
RRIRRRPPRLPRPRPRPEAYPRP	0.15
RRIRRRPPRLPRPRPRPEDPPRP	0.192
RRIRRRPPRLPRPRPRPEDQPRP	0.196
RRIRRRPPRLPRPRPRPEDVPRP	-0.0417
RRIRRRPPRLPRPRPRPEEAPRP	1.51
RRIRRRPPRLPRPRPRPEFAPRP	0.129
RRIRRRPPRLPRPRPRPEFCPRP	0.579
RRIRRRPPRLPRPRPRPEFKPRP	0.0599
RRIRRRPPRLPRPRPRPEGEPRP	1.17
RRIRRRPPRLPRPRPRPEGQPRP	0.131
RRIRRRPPRLPRPRPRPEHAPRP	0.686
RRIRRRPPRLPRPRPRPEHKPRP	0.193
RRIRRRPPRLPRPRPRPEIHPRP	-0.265
RRIRRRPPRLPRPRPRPELGPRP	0.809
RRIRRRPPRLPRPRPRPELNPRP	0.312
RRIRRRPPRLPRPRPRPELVPRP	0.27
RRIRRRPPRLPRPRPRPEMAPRP	0.145
RRIRRRPPRLPRPRPRPEMRPRP	0.0735
RRIRRRPPRLPRPRPRPENGPRP	0.401
RRIRRRPPRLPRPRPRPENWPRP	0.153
RRIRRRPPRLPRPRPRPEREPRP	0.297

Sequence	shrunken log2 fold change
RRIRRRPPRLPRPRPRPERYPRP	0.00129
RRIRRRPPRLPRPRPRPESPPRP	0.5
RRIRRRPPRLPRPRPRPESQPRP	0.303
RRIRRRPPRLPRPRPRPFAHPRP	-0.00279
RRIRRRPPRLPRPRPRPFAIPRP	0.102
RRIRRRPPRLPRPRPRPFCDPRP	-0.0358
RRIRRRPPRLPRPRPRPFCHPRP	-0.17
RRIRRRPPRLPRPRPRPFDQPRP	0.0321
RRIRRRPPRLPRPRPRPFEQPRP	0.105
RRIRRRPPRLPRPRPRPFGPPRP	0.165
RRIRRRPPRLPRPRPRPFHQPRP	-0.191
RRIRRRPPRLPRPRPRPFICPRP	-0.0336
RRIRRRPPRLPRPRPRPFIIPRP	-0.323
RRIRRRPPRLPRPRPRPFIVPRP	-0.0553
RRIRRRPPRLPRPRPRPFKRPRP	-2.89e-05
RRIRRRPPRLPRPRPRPFLMPRP	0.0572
RRIRRRPPRLPRPRPRPFLPPRP	0.111
RRIRRRPPRLPRPRPRPFLWPRP	0.173
RRIRRRPPRLPRPRPRPFNAPRP	-0.0138
RRIRRRPPRLPRPRPRPFNLPRP	-0.109
RRIRRRPPRLPRPRPRPFNTPRP	-0.119
RRIRRRPPRLPRPRPRPFPNPRP	0.558
RRIRRRPPRLPRPRPRPFQQPRP	0.282
RRIRRRPPRLPRPRPRPFQWPRP	0.194
RRIRRRPPRLPRPRPRPFRDPRP	0.506

Sequence	shrunken log2 fold change
RRIRRRPPRLPRPRPRPFTHPRP	-0.174
RRIRRRPPRLPRPRPRPFTTPRP	-0.0176
RRIRRRPPRLPRPRPRPFVIPRP	-0.0863
RRIRRRPPRLPRPRPRPFVNPRP	-0.049
RRIRRRPPRLPRPRPRPFWHPRP	-0.0292
RRIRRRPPRLPRPRPRPFYLPRP	-0.226
RRIRRRPPRLPRPRPRPFYTPRP	-0.327
RRIRRRPPRLPRPRPRPGCRPRP	0.459
RRIRRRPPRLPRPRPRPGEGPRP	0.747
RRIRRRPPRLPRPRPRPGEHPRP	0.291
RRIRRRPPRLPRPRPRPGFEPRP	0.293
RRIRRRPPRLPRPRPRPGGPPRP	0.321
RRIRRRPPRLPRPRPRPGGSPRP	0.0293
RRIRRRPPRLPRPRPRPGHDPRP	0.0801
RRIRRRPPRLPRPRPRPGHQPRP	0.342
RRIRRRPPRLPRPRPRPGKDPRP	-0.0528
RRIRRRPPRLPRPRPRPGKGPRP	0.609
RRIRRRPPRLPRPRPRPGLCPRP	0.457
RRIRRRPPRLPRPRPRPGLVPRP	0.279
RRIRRRPPRLPRPRPRPGLWPRP	0.622
RRIRRRPPRLPRPRPRPGMWPRP	0.59
RRIRRRPPRLPRPRPRPGNHPRP	0.0323
RRIRRRPPRLPRPRPRPGRPPRP	0.259
RRIRRRPPRLPRPRPRPGRSPRP	-0.104
RRIRRRPPRLPRPRPRPGSAPRP	0.378

Sequence	shrunken log2 fold change
RRIRRRPPRLPRPRPRPGSPPRP	0.107
RRIRRRPPRLPRPRPRPGTTPRP	0.462
RRIRRRPPRLPRPRPRPGWNPRP	0.257
RRIRRRPPRLPRPRPRPGYKPRP	-0.0679
RRIRRRPPRLPRPRPRPGYSPRP	1.84
RRIRRRPPRLPRPRPRPHAMPRP	0.191
RRIRRRPPRLPRPRPRPHCNPRP	-0.135
RRIRRRPPRLPRPRPRPHCYPRP	0.0243
RRIRRRPPRLPRPRPRPHFDPRP	0.216
RRIRRRPPRLPRPRPRPHGAPRP	0.284
RRIRRRPPRLPRPRPRPHGDPRP	0.0543
RRIRRRPPRLPRPRPRPHGPPRP	0.267
RRIRRRPPRLPRPRPRPHHCPRP	-0.0737
RRIRRRPPRLPRPRPRPHHWPRP	0.0825
RRIRRRPPRLPRPRPRPHIDPRP	-0.43
RRIRRRPPRLPRPRPRPHLGPRP	-0.044
RRIRRRPPRLPRPRPRPHLKPRP	-0.0915
RRIRRRPPRLPRPRPRPHLTPRP	-0.132
RRIRRRPPRLPRPRPRPHMHPRP	-0.083
RRIRRRPPRLPRPRPRPHMVPRP	-0.355
RRIRRRPPRLPRPRPRPHPEPRP	0.0463
RRIRRRPPRLPRPRPRPHPFPRP	0.116
RRIRRRPPRLPRPRPRPHPTPRP	0.563
RRIRRRPPRLPRPRPRPHQWPRP	0.144
RRIRRRPPRLPRPRPRPHSAPRP	0.0905

Sequence	shrunken log2 fold change
RRIRRRPPRLPRPRPRPHSTPRP	0.0894
RRIRRRPPRLPRPRPRPHTTPRP	-0.303
RRIRRRPPRLPRPRPRPHVEPRP	-0.162
RRIRRRPPRLPRPRPRPHWGPRP	0.291
RRIRRRPPRLPRPRPRPHWKPRP	-0.00963
RRIRRRPPRLPRPRPRPHWLPRP	0.28
RRIRRRPPRLPRPRPRPHYKPRP	-0.487
RRIRRRPPRLPRPRPRPHYWPRP	0.0315
RRIRRRPPRLPRPRPRPIALPRP	0.0331
RRIRRRPPRLPRPRPRPIAYPRP	0.0129
RRIRRRPPRLPRPRPRPIDFPRP	0.137
RRIRRRPPRLPRPRPRPIGTPRP	0.00964
RRIRRRPPRLPRPRPRPIIMPRP	-0.444
RRIRRRPPRLPRPRPRPIKNPRP	0.278
RRIRRRPPRLPRPRPRPILQPRP	1.83
RRIRRRPPRLPRPRPRPIMPPRP	-0.188
RRIRRRPPRLPRPRPRPIMYPRP	-0.186
RRIRRRPPRLPRPRPRPIPCPRP	0.0472
RRIRRRPPRLPRPRPRPIPPPRP	0.452
RRIRRRPPRLPRPRPRPIQHPRP	0.0238
RRIRRRPPRLPRPRPRPIQNPRP	0.0525
RRIRRRPPRLPRPRPRPIQWPRP	-0.105
RRIRRRPPRLPRPRPRPISQPRP	-0.395
RRIRRRPPRLPRPRPRPITLPRP	-0.0936
RRIRRRPPRLPRPRPRPIVWPRP	0.0811
